According to patent US8981179B2, “Transgenic non-human animal and uses thereof” (Sanofi, priority 2009, dated 2015):

Target: T1, prokineticin 2 receptor (PROK2R) (Mus musculus, UniProt Q8K458)
T1 construct: endogenous in cells; host or cells: primary cortical neurons, E18, CreLuc mouse lines (187 and others)
Assay: Primary cortical neurons CreLuc luciferase assay, Gq modulation
Assay type: cell-based
Text: A general schematic of the workflow for the isolation and compound treatment of primary neuronal cells from the CreLuc model is depicted in FIG. 9. Cortices or other brain subregions are removed from embryos, usually embryonic (E) day 17 or 18, but also as early as E14. The individual neurons are then isolated and plated onto 96 well assay plates. Assays are run either in triplicate or quadruplicate. The assays are run from day 3 in culture up until day 7 or day 10 in culture depending on the expression levels of the target GPCR. Compounds are added to the plates then at a set timepoint, Bright Glo (Promega, Cat #E2610) is added to the plates and the assay is then run on a TopCount or other luminometer.
Primary cell cultures from the CreLuc mice may be used to screen compounds that are capable of modulating Gs coupled receptors. The PROK2R is Gq coupled, therefore, prokineticin 2 (PROK2) which is an agonist for the PROK2R was used to see whether CreLuc mice would be responsive to Gq modulation. […]
The effects of PROK2 peptide on luciferase expression in primary cortical neurons from different CreLuc lines was examined. […] Lines were selected based on earlier experiments which determined inducible luciferase levels in whole brain extracts (data not shown). […] BrightGlo was used for the assay and read on a TopCount. […]

T1 sequence (Q8K458 whole entry): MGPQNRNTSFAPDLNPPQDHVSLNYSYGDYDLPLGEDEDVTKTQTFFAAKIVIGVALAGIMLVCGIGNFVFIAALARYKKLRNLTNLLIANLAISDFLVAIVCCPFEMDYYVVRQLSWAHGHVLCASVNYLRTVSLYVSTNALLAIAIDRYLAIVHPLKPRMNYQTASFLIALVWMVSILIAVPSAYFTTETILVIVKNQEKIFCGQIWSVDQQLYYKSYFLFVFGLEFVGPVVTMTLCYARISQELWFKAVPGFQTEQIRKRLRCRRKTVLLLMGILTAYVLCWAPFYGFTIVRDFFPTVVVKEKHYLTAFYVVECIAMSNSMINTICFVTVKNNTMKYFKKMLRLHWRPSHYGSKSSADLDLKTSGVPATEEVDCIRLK

B1: PROK2: prokineticin 2 peptide (Peprotech), agonist for the PROK2R (protein)
chain: AVITGACDKDSQCGGGMCCAVSIWVKSIRICTPMGKLGDSCHPLTRKVPFFGRRMHHTCPCLPGLACLRTSFNRFICLAQK
luciferase levels vs media only control (cortical neurons line 187, day 3, 1 nM and 100 nM, 4 hours and 8 hours): Highly significant increases
luciferase levels in cortical neurons from different CreLuc lines (lines 219 and 175, 1 nM and 100 nM, 4 hours and 24 hours): Statistically significant increases
